The record followed here is paper PMC5057313.

The assay has as its target Arabidopsis ferredoxin : thioredoxin reductase catalytic subunit (AtFTRc), prey in pGADT7 (Arabidopsis thaliana) (UniProt Q9SJ89).
UniProt Q9SJ89, sequence (Q9SJ89 whole entry): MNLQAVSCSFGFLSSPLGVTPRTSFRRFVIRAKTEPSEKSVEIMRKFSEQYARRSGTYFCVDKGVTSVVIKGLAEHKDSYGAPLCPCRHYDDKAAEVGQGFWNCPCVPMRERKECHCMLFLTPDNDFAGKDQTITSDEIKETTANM

On to “MjTTL5 (transthyretin-like protein 5 of Meloidogyne javanica), bait in pGBKT7 (natural protein)”, for which the H2O2 consumption of wild-type Arabidopsis protein with MjTTL5 against the MjTTL5-free treatment (only 1.8-fold in the AtFTRc mutants; Fig. S16c) is 2.5 fold.
